Laboratory results published in patent US9255256B2, “Expression of functional cytochorome P450 monooxygenase system in enterobacteria” (priority 1996, dated 2016).
Where two headings read alike, the source gives them in different places.

Tests used:
[1] = system: CYP3A4; conditions: reconstituted system, Gillam et al (1993); cited from earlier work
[2] = system: CYP3A4; experiment: Testosterone 6β-hydroxylase assay, bacterial membrane fractions; assay type: biochemical, human; conditions: in the presence of cumene hydroperoxide, no reductase
Target sequence in this assay (P08684 19-503 limits assumed): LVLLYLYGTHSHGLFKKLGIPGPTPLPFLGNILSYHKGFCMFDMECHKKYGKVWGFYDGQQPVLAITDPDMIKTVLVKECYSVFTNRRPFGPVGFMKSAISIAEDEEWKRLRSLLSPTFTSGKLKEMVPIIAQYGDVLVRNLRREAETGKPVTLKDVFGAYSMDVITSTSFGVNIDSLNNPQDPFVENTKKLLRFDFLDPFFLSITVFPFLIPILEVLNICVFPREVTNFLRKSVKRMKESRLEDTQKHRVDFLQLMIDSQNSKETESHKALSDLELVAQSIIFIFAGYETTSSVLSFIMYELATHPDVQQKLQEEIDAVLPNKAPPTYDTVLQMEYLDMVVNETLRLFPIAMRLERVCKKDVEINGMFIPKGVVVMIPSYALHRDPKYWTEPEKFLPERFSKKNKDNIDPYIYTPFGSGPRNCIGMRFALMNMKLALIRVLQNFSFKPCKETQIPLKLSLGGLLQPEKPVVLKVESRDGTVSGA
Protocol: Assays were carried out with cells and membrane fractions. In both cases, approximately 100 pmol P450 was incubated with shaking in TSE containing 30 mM MgCl2. The final testosterone concentration was 0.2 mM. Where membranes were used, an NADPH generating system was is added (final concentration 1 mM NADP, 5 mM glucose-6-phosphate, 1 unit glucose-6-phosphate dehydrogenase). Reactions were carried out at 37° C. for 5 minutes, then stopped by addition of 1 ml ice-cold methanol and placed on ice for 10 minutes. Following centrifugation, supernatants were diluted with an equal volume of ice-cold water, and the testosterone metabolites extracted using Isolute C18 columns (IST Ltd), and eluted in 1 ml methanol. […] The yield of the 6β-hydroxytestosterone was calculated by reference to a standard of known concentration, and this allowed determination of the specific activity of the recombinant CYP3A4 towards testosterone.
Direct determination of the catalytic activity of the expressed proteins was not possible due to the absence of P450 reductase in bacterial membranes. The P450 enzyme activity was therefore determined in the presence of cumene hydroperoxide which serves as an artificial oxygen donor for P450s.

[3] = molecular target: T1, human P450 reductase fused at its N-terminus to the bacterial pelB leader sequence (bacterial; human) (UniProt P16435); experiment: cell-based or functional assay
T1 sequence: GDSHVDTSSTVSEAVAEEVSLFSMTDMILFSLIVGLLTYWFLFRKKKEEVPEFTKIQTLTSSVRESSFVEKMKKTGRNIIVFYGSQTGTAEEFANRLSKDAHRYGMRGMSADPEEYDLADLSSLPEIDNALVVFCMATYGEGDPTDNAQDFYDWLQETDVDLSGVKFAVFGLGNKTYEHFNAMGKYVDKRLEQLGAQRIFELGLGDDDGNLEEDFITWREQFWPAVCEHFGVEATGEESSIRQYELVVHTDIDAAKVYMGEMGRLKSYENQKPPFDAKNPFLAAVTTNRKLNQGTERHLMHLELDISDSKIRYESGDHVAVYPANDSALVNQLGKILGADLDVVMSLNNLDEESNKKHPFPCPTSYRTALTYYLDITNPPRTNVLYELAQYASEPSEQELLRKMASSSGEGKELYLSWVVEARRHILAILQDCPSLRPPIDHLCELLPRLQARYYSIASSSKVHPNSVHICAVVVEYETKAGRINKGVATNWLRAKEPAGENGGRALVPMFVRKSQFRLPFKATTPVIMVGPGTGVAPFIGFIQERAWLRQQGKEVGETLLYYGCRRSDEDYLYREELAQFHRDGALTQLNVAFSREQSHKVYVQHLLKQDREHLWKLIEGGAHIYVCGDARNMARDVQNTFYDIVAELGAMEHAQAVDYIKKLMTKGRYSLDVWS

[4] = molecular target: bacterial flavodoxin/NADPH-flavodoxin reductase system or another bacterial reductase; experiment: cell-based or functional assay
[5] = molecular target: T2, CYP2D6 (Homo sapiens, UniProt P10635); assay type: biochemical
T2 construct: in frame to the 5′-end of the full length P450 cDNA; made in house; host or cells: E. coli JM109, membrane fractions
Protocol: Assays on bacterial membrane fractions were carried out at 37° C. in 50 mM potassium phosphate buffer, pH 7.4, containing 20 or 50 pmol CYP2D6, 50 μM (±)-bufuralol, and a NADPH regenerating system (see Example 1) in a total volume of 300 μl. For membranes isolated from cells carrying pCW/ompA-CYP2D6 only (ie. no reductase co-expressed), the NADPH regenerating system was replaced by 100 μM cumene hydroperoxide. Reactions were stopped by the addition of 15 μl of 60% perchloric acid and placed on ice for 5-10 min. Precipitated proteins were removed by centrifugation, and then the supernatants were analysed for 1′-hydroxybufuralol by reversed-phase HPLC, with reference to authentic standard. Separation was achieved using a Spherisorb 5 μm ODS-2 column 25 cm×4.6 mm, and a mobile phase of 0.1 M ammonium acetate (pH 5.0) with a linear gradient of acetonitrile (27 to 51% in 12 min). Detection was by fluorescence using excitation and emission wavelengths of 252 and 302 nm, respectively.
For the determination of Michaelis-Menten kinetic parameters, incubations were carried out for 5 min with 20 pmol CYP2D6 and varying concentrations of substrate (0 to 100 μM). Km and νmax were estimated from double-reciprocal plots of initial reaction velocity versus substrate concentration.

[6] = molecular target: T3, human P450 reductase fused at its N-terminus to the bacterial pelB leader sequence, P16435
T3 chain: T1 sequence

[7] = molecular target: T4, P450 reductase (Homo sapiens, UniProt P16435)
T4 sequence (P16435 with tags, fused parts or gaps): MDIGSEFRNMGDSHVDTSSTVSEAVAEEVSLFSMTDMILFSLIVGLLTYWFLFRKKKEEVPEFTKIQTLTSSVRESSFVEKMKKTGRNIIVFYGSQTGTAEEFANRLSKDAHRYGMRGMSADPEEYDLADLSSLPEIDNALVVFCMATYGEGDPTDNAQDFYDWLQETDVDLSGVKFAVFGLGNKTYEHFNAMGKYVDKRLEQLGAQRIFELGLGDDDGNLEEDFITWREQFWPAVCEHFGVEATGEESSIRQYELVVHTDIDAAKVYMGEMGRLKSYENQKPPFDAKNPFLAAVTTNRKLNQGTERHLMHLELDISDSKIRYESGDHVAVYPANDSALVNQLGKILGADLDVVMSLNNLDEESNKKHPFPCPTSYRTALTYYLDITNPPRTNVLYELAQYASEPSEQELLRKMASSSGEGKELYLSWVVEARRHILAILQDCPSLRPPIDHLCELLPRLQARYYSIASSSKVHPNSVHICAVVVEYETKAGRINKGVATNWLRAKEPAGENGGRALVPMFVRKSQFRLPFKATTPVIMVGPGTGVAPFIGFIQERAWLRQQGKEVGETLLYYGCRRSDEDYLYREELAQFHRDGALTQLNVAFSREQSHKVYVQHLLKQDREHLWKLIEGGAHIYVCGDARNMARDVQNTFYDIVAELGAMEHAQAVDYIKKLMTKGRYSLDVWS
Protocol: (§1) An equal volume of ice-cold distilled water was then added. The CYP3A4 content was determined using Fe^2—CO vs Fe^2+ difference spectra by adding 50 μl whole cell suspension in 1×TSE to 950 μl 100 mM Tris. Cl (pH 7.4), 10 mM CHAPS, 20% v/v glycerol, 1 mM EDTA and reducing by adding a few grains of sodium dithionite. A baseline of zero absorbance was recorded between 500 and 400 nm, then the sample cuvette was bubbled under a steady stream of CO for about 1 minute. A spectrum was then recorded and the yield of spectrally active CYP3A4/1 culture determined. At this stage, an aliquot of whole cells was withdrawn for metabolism studies. […] The CYP3A4 and reductase content of the membranes was determined. The yield of active reductase was evaluated by a spectrophotometric assay, as follows. To 990 μl 50 μM cytochrome c in 0.3 M potassium phosphate buffer (pH 7.7), 1-10 μg membrane protein was added, and a baseline recorded. 50 μM NADPH was added and ΔA550 nm was recorded over time. To determine the P450 contents of membranes, spectra were obtained as for whole cells.

[8] = molecular target: T2, CYP2D6; experiment: Bufuralol 1′-hydroxylase assay, whole cells; assay type: cell-based
Protocol: Assays on whole cells were carried out at 37° C. in 50 ml conical flasks, and contained 50 pmol CYP2D6, 50 μM (±)-bufuralol and 1×TSE buffer in a total volume of 5 ml. Samples (300 μl) were withdrawn at 0, 2, 5 and 10 min into tubes containing 15 μl of 60% perchloric acid on ice. Analysis then proceeded in an identical manner to the membrane assays (see above).

[9] = molecular target: T1, human P450 reductase fused at its N-terminus to the bacterial pelB leader sequence (bacterial; human); experiment: cell-based or functional assay; remark: listed apart in the source
[10] = system: P450 reductase; experiment: Cytochrome c reductase activity of bacterial membrane fractions; conditions: membranes, expression from pCW, towards cytochrome c (FIG. 4)
Protocol: as §1

## bacterially-expressed CYP3A4: reconstituted system containing bacterially-expressed CYP3A4, Gillam et al (1993)
[1]
  turnover rates, testosterone 6β-hydroxylation: up to 10 nmol 6β-hydroxytestosterone/minute/nmol P450

## ompA-CYP3A4: CYP3A4 fused at its N-terminus to the bacterial ompA leader sequence
[2]
  turnover number for the 6β-hydroxylation of testosterone: 3.2 min⁻¹

## 17α-CYP3A4 (optimised CYP3A4 expressed from NF14 / pB216) (from UniProt P08684 1-503) (enzyme)
[3]
  nifedipine oxidase turnover, JM109 pB216 whole cells: 15.2 min^-1
  testosterone 6β-hydroxylase turnover, JM109 pB216 whole cells: 17.3 min^-1
[4]
  testosterone 6β-hydroxylase turnover, JM109 NF14 whole cells (CYP3A4 alone): < 0.5 min⁻¹

B1: ompA-CYP2D6 (protein)
chain: MGLEALVPLAVIVAIFLLLVDLMHRRQRWAARYPPGPLPLPGLGNLLHVDFQNTPYCFDQLRRRFGDVFSLQLAWTPVVVLNGLAAVREALVTHGEDTADRPPVPITQILGFGPRSQGVFLARYGPAWREQRRFSVSTLRNLGLGKKSLEQWVTEEAACLCAAFANHSGRPFRPNGLLDKAVSNVIASLTCGRRFEYDDPRFLRLLDLAQEGLKEESGFLREVLNAVPVLLHIPALAGKVLRFQKAFLTQLDELLTEHRMTWDPAQPPRDLTEAFLAEMEKAKGNPESSFNDENLRIVVADLFSAGMVTTSTTLAWGLLLMILHPDVQRRVQQEIDDVIGQVRRPEMGDQAHMPYTTAVIHEVQRFGDIVPLGVTHMTSRDIEVQGFRIPKGTTLITNLSSVLKDEAVWEKPFRFHPEHFLDAQGHFVKPEAFLPFSAGRRACLGEPLARMELFLFFTSLLQHFSFSVPTGQPRPSHHGVFAFLVSPSPYELCAVPR
[5]
  Km: 11.1 µM
  Vmax, bufuralol 1′-hydroxylation: 13.3 min⁻¹
  specific activity, bufuralol hydroxylation: 1.2 nmoles/min/mg membrane protein
  specific activity, fold higher than the value reported for human liver microsomes: 40 fold
[6]
  CYP2D6-dependent activities on co-expression: couples well with co-expressed reductase, catalysing typical CYP2D6-dependent activities
  Vmax of bufuralol 1'-hydroxylation, membranes co-expressing both: 13.3 min⁻¹
  bufuralol 1'-hydroxylase specific activity: 1.2 nmoles/min/mg membrane protein
  bufuralol 1'-hydroxylation turnover number, intact bacteria: turnover numbers of 4.6 min^-1 and 5.7 min^-1 respectively
  bufuralol 1'-hydroxylation turnover number, membranes: turnover numbers of 4.6 min^-1 and 5.7 min^-1 respectively
[7]
  cytochrome c reductase activity: 530 nmol/min/mg
[8]
  bufuralol 1′-hydroxylase activity, intact E. coli: 1.2 nmoles/min/mg protein
[8]; co-expressed with pelB-reductase, 50 μM bufuralol, no added NADPH
  turnover number, bufuralol hydroxylation, intact bacteria: 4.6 min⁻¹
[8]; intact E. coli
  bufuralol 1′-hydroxylase activity, fold higher than average of a panel of human liver microsomes: about 20 fold

B2: 17α-CYP2A6 (protein)
chain: MLASGMLLVALLVCLTVMVLMSVWQQRKSKGKLPPGPTPLPFIGNYLQLNTEQMYNSLMKISERYGPVFTIHLGPRRVVVLCGHDAVREALVDQAEEFSGRGEQATFDWVFKGYGVVFSNGERAKQLRRFSIATLRDFGVGKRGIEERIQEEAGFLIDALRGTGGANIDPTFFLSRTVSNVISSIVFGDRFDYKDKEFLSLLRMMLGIFQFTSTSTGQLYEMFSSVMKHLPGPQQQAFQLLQGLEDFIAKKVEHNQRTLDPNSPRDFIDSFLIRMQEEEKNPNTEFYLKNLVMTTLNLFIGGTETVSTTLRYGFLLLMKHPEVEAKVHEEIDRVIGKNRQPKFEDRAKMPYMEAVIHEIQRFGDVIPMSLARRVKKDTKFRDFFLPKGTEVYPMLGSVLRDPSFFSNPQDFNPQHFLNEKGQFKKSDAFVPFSIGKRNCFGEGLARMELFLFFTTVMQNFRLKSSQSPKDIDVSPKHVGFATIPRNYTMSFLPR
[3]
  coumarin 7-hydroxylase activity, shocked cells (nmol/min/nmol P450): 0.75

B3: ompA-CYP2A6 (enzyme, human)
chain: B2 chain
[9]
  coumarin 7-hydroxylase activity, shocked cells (nmol/min/nmol P450): < 0.02

B4: ompA(+2)-CYP2A6 (enzyme, human)
chain: APMLASGMLLVALLVCLTVMVLMSVWQQRKSKGKLPPGPTPLPFIGNYLQLNTEQMYNSLMKISERYGPVFTIHLGPRRVVVLCGHDAVREALVDQAEEFSGRGEQATFDWVFKGYGVVFSNGERAKQLRRFSIATLRDFGVGKRGIEERIQEEAGFLIDALRGTGGANIDPTFFLSRTVSNVISSIVFGDRFDYKDKEFLSLLRMMLGIFQFTSTSTGQLYEMFSSVMKHLPGPQQQAFQLLQGLEDFIAKKVEHNQRTLDPNSPRDFIDSFLIRMQEEEKNPNTEFYLKNLVMTTLNLFIGGTETVSTTLRYGFLLLMKHPEVEAKVHEEIDRVIGKNRQPKFEDRAKMPYMEAVIHEIQRFGDVIPMSLARRVKKDTKFRDFFLPKGTEVYPMLGSVLRDPSFFSNPQDFNPQHFLNEKGQFKKSDAFVPFSIGKRNCFGEGLARMELFLFFTTVMQNFRLKSSQSPKDIDVSPKHVGFATIPRNYTMSFLPR
[9]
  coumarin 7-hydroxylase activity, shocked cells (nmol/min/nmol P450): 0.29
[6]
  coumarin 7-hydroxylase activity, membranes: 1

B5: pelB-reductase: human P450 reductase fused at its N-terminus to the pelB leader sequence (protein)
chain: T1 sequence
modifications: left off: small tags and cut ends
[10]
  reductase activity compared to the native P450 reductase: almost ten fold higher
